Laboratory results: the supplement of paper PMC9170038

System: MS2 coat protein
Assay: apparent KD of MS2 coat protein; higher = weaker reporter binding
Details: Eterna round: R107; input ligand: arginine 13.2 mM
Summary of the method: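 Apparent KD was obtained for each design as the median of normalised binding-curve fits over its clusters. RNA switches transcribed on-chip from Illumina sequencing clusters were titrated with SNAP-549-labelled MS2 coat protein (twofold steps, 0.7 or 1.5 nM to 3 µM) in 100 mM Tris-HCl pH 7.5, 80 mM KCl, 4 mM MgCl2, without or with constant ligand.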

With “CCUGAUAACUGAAGGAGCGAGAAACCCUACAUGAGGAUCACCCAUGUAUACACGGGAACUUCUCAGGUAGGUCGCAGUUUGUCAG [Adiso]” as the sequence, how does the “apparent KD of MS2 coat protein” value read?
The value was 48 nM.

Same assay, conditions: Eterna round: R107; input ligand: none

Which “apparent KD of MS2 coat protein” value does the source give for “AGCUCGCGAAAGCGAGCAACAUGAUCCGAAGGAGCGGGCGAAAGCCCAGGUAGGUCGCGGACAUGAGGAUCACCCAUGUCUCCUU [MAT - Exclusion Arginine A - Mod of Eli - D13]” here?
The value was 70.9 nM.

“UUGGGUUUGUGAAGGAGCGGGAAAGUUUUAUAGUGGAUCCUAACAUGAGGAUCACCCAUGUCCCAGGUAGGUCGCGCGGGUUUGG [12.R]” was tested. Which “apparent KD of MS2 coat protein” value did it give?
The value was 182 nM.

Which “apparent KD of MS2 coat protein” value does the source give for “ACAUUUAACUGAAGGAGCGUGAUAUACAUGAGGAUCACCCAUGUGUCUUACAUGAAUAAUUCACAGGUAGGUCGCAGACUAAUGA [JR_ExcArginiB_Sub009]” here?
Its value is 26.7 nM.

How did the “apparent KD of MS2 coat protein” value turn out when “UGUAUGUGAUCUGAUACCAGCUAGCGGAAACGCAAGCUUGAGGAUCACCCAAGUGGAAUAAGCCCUUGGCAGCAGAUCGCAUACU [Denovo 5 #StaticStem #AlternativeMS2]” was run?
Its value is 266 nM.

With “UUCAAAGGGAACGGUGCUGGUGACAGAGAUACCAGAGUAGUAAUACUCCCUUGGCAGCUCAGAACAUGAGGAUCACCCAUGUAAU [Exclusion Theophylline A GF22]” as the sequence, how does the “apparent KD of MS2 coat protein” value read?
Its value is 18 nM.

For “GUAGCGACGGCGGCCGCCACUCGCACGUGAGGGUAGACCAACCUUCACAUGAGGAUCACCCAUGUGAGGACCGGGCUGUCGCUAC [#15 Exclusion Tryptophan B]”, which “apparent KD of MS2 coat protein” value is on record?
Its value is 23.8 nM.

With “GAAUUUUAUUGAAGGAGCGUCGAAAAUGGGUAAACAUGAGGAUCACCCAUGUAAAGGGAACGACAGGUAGGUCGCAAUAGGAUUC [AstromonsSSArgB#28]” as the sequence, how does the “apparent KD of MS2 coat protein” value read?
Its value is 177 nM.

Which “apparent KD of MS2 coat protein” value does the source give for “UGUAUGUGAUUUGAUACCAGACCAGCUGGUGGUACAUGAGCAUCAGCCAUGUAGGUUUGGGUCCCUUGGCAGCAAAUCGCAUACU [SS Theo B #24 Ms2]” here?
The value was 21 nM.

How did the “apparent KD of MS2 coat protein” value turn out when “UUAUGCAGGUCGGCCGCCACUACACACAUGAGGAUCACCCAUGUAGUUACUGGGUGAAGUGGCAGUAGGACCGGGACCCGCACAU [Brourdmod21]” was run?
Its value is 367 nM.

With “UUAUUUAUAGGCGAUACCAGCCGAAUGGCCGCAAAUCCUAACAUGAGGAUCACCCAUGUCGGCCCUUGGCAGCGCCUAUGGGUUU [XTheo B #27]” as the sequence, how does the “apparent KD of MS2 coat protein” value read?
Its value is 94.7 nM.

For “UAACGGCACUGAAGGAGCGAGUUGACAAACAUGAGGAUCACCCAUGUUAUGGGUUGUUAAUCUCAGGUAGGUCGCAGUUGUCGUA [Same State Arginine B GF 20]”, which “apparent KD of MS2 coat protein” value is on record?
Its value is 348 nM.

With “GCACAUGAGGAUCACCCAUGUACAACUGAAGGAGCGAGACAGAACUCAGGUAGGUCGCAGACUGCACAAUUGCGGACGACAUGGG [Exclusion Arginine A GF21]” as the sequence, how does the “apparent KD of MS2 coat protein” value read?
Its value is 34.2 nM.

With “CUGGACAUGAGGAUCACCCAUGUAAAUCCUCGAGGACCGGUACGGCCGCCACUCGAACGAGUGGCACGCGAGUGCGCACUCGCGU [aLa]” as the sequence, how does the “apparent KD of MS2 coat protein” value read?
Its value is 29.8 nM.

With “CUGGACAUGAGGAUCACCCAUGUAAAUCCUCGAGGACCGGUACGGCCGCCACUCGAACGAGUGGCGCGCGAGCGCGCGCUCGCGC [aJa]” as the sequence, how does the “apparent KD of MS2 coat protein” value read?
The value was 43.3 nM.

How did the “apparent KD of MS2 coat protein” value turn out when “AGAUGUAGCGGAAGGAGCGACUUGAGGAUCACCCAAGUCUCCCGUUGUGGGAGUUCCUUAGGUCAGGUAGGUCGCCGUUACGUCA [Omei Arg B SS B v3]” was run?
Its value is 145 nM.

For “UCUCAAGGCCGCUCGGUGCUCCCUGGUGAUACCAGCCAUAUAUCCGGCCCUUGGCAGCACAUGAGGAUCACCCAUGUAGCAGGCG [Sorimaat]”, which “apparent KD of MS2 coat protein” value is on record?
Its value is 24 nM.

With “CCUGAUAACUGAAGGAGCGAGAAACCCUACAUGAGGAUCACCCAUGUAUACACGGGAACUUCUCAGGUAGGUCGCAGUUUGUCAG [Adiso]” as the sequence, how does the “apparent KD of MS2 coat protein” value read?
Its value is 101 nM.

Same assay, conditions: Eterna round: R107; input ligand: theophylline 20 uM

Which “apparent KD of MS2 coat protein” value does the source give for “GCACUACAUGAGGAUCACCCAUGUGCAGAUACCAGAGGUGUAUGCCUCCCUUGGCAGCUGAGUAGGUCUGGAGGGCUAUUGGUUU [Same State Theophylline A GF14]” here?
The value was 27.8 nM.

How did the “apparent KD of MS2 coat protein” value turn out when “CCUAUGCAGUCGGCCGCCACUGAGUCCUCAAUAAUAAAUUAAUAUACAUGAGGAUCACCCAUGUACAGGACCGGGACUGUAUAGG [Ex Tryptophan B 13]” was run?
The value was 268 nM.

With “AGCUCGCGAAAGCGAGCAACAUGAUCCGAAGGAGCGGGCGAAAGCCCAGGUAGGUCGCGGACAUGAGGAUCACCCAUGUCUCCUU [MAT - Exclusion Arginine A - Mod of Eli - D13]” as the sequence, how does the “apparent KD of MS2 coat protein” value read?
Its value is 88.4 nM.

For “AGUGUAUCCAUCGAUACCAGCCACCACCGAUAGACCACAUGAGGAUCACCCAUGUUGGGUGGCCCUUGGCAGCGGUGGCUGUGUA [Same State - Theophylline B Attempt #2 (HarryS)]”, which “apparent KD of MS2 coat protein” value is on record?
Its value is 512 nM.

Which “apparent KD of MS2 coat protein” value does the source give for “AGCAUGUUAUCAGAUACCAGACAUCUUUUAAUACAUAUUACAUGAGGAUCACCCAUGUUGGUCCCUUGGCAGCUGAAAUAUUUCA [JR_Nu_SSTheophyB_Sub023]” here?
Its value is 223 nM.

With “UUGGGUUUGUGAAGGAGCGGGAAAGUUUUAUAGUGGAUCCUAACAUGAGGAUCACCCAUGUCCCAGGUAGGUCGCGCGGGUUUGG [12.R]” as the sequence, how does the “apparent KD of MS2 coat protein” value read?
Its value is 182 nM.

Which “apparent KD of MS2 coat protein” value does the source give for “ACAUUUAACUGAAGGAGCGUGAUAUACAUGAGGAUCACCCAUGUGUCUUACAUGAAUAAUUCACAGGUAGGUCGCAGACUAAUGA [JR_ExcArginiB_Sub009]” here?
Its value is 33.7 nM.

For “ACGAACUGUAGUGAUACCAGACGUACAUGAGGAUCACCCAUGUUGUAAACAUGGUGAAUAGUCCCUUGGCAGCACAGUUAGUUCG [#11 Exclusion-TheophyllineB]”, which “apparent KD of MS2 coat protein” value is on record?
Its value is 355 nM.

For “GGGCACAUGAGGAUCACCCAUGUCCAACGGCGAGGACCGGUACGGCCGCCACUCGGUAUAAGCUUCGAAAAGGAGGAUCCUGCAG [theeternabot_sameState_MS2_Trp_A_35]”, which “apparent KD of MS2 coat protein” value is on record?
Its value is 56.3 nM.

How did the “apparent KD of MS2 coat protein” value turn out when “UGUAUGUGAUCUGAUACCAGCUAGCGGAAACGCAAGCUUGAGGAUCACCCAAGUGGAAUAAGCCCUUGGCAGCAGAUCGCAUACU [Denovo 5 #StaticStem #AlternativeMS2]” was run?
The value was 197 nM.

For “UUCAAAGGGAACGGUGCUGGUGACAGAGAUACCAGAGUAGUAAUACUCCCUUGGCAGCUCAGAACAUGAGGAUCACCCAUGUAAU [Exclusion Theophylline A GF22]”, which “apparent KD of MS2 coat protein” value is on record?
The value was 29.1 nM.

With “UGUGGGCGCACGGCCGCCACUGUCUUCAUCUGUUUGUCUACAUGAGGAUCACCCAUGUUGGUUUACAGGACCGGGUGCAUCUAUG [SSTryp B #12]” as the sequence, how does the “apparent KD of MS2 coat protein” value read?
The value was 80.8 nM.

How did the “apparent KD of MS2 coat protein” value turn out when “ACGAACGAUAGUGAUACCAGACGUACAUGAGGAUCACCCAUGUUGUAAACAUGGUUAAUAGUCCCUUGGCAGCACGAUAAGUUCG [JR_ExcTheophyB_Sub003]” was run?
Its value is 530 nM.

“CCUGCGUUUCUUUUCUUUCGCAGGAAUGAUACCAGUAGGGAAACCUACCCUUGGCAGCAUGGGACAUGAGGAUCACCCAUGUUUU [SSThA NP+V+V2 #4]” was tested. Which “apparent KD of MS2 coat protein” value did it give?
Its value is 202 nM.

With “GUAGCGACGGCGGCCGCCACUCGCACGUGAGGGUAGACCAACCUUCACAUGAGGAUCACCCAUGUGAGGACCGGGCUGUCGCUAC [#15 Exclusion Tryptophan B]” as the sequence, how does the “apparent KD of MS2 coat protein” value read?
The value was 30.4 nM.

For “GAAUUUUAUUGAAGGAGCGUCGAAAAUGGGUAAACAUGAGGAUCACCCAUGUAAAGGGAACGACAGGUAGGUCGCAAUAGGAUUC [AstromonsSSArgB#28]”, which “apparent KD of MS2 coat protein” value is on record?
Its value is 188 nM.

With “UGUAUGUGAUUUGAUACCAGACCAGCUGGUGGUACAUGAGCAUCAGCCAUGUAGGUUUGGGUCCCUUGGCAGCAAAUCGCAUACU [SS Theo B #24 Ms2]” as the sequence, how does the “apparent KD of MS2 coat protein” value read?
The value was 28.7 nM.

With “UCGCAUUGCUGCGAUACCAGACAUGAGGAUCACCCAUGUACCAAGGUACGAAAAUAACAUGUCCCUUGGCAGCGCAGCAAUGCGU [MAT - Exclusion Theophlline B - Mod of Eli - D5]” as the sequence, how does the “apparent KD of MS2 coat protein” value read?
The value was 30.1 nM.
